The text below walks through data of US20020111309A1.

The target in test [1] is Aβ (1-40), beta-amyloid protein of Alzheimer's disease (UniProt P05067). The test is described as follows: solid phase binding immunoassay, Aβ (1-40) on microtiter wells, laminin in solution, anti-laminin detection, one-site fit.
For test [2] the target is unchanged. The experiment in a line: cell-based or functional assay.

Chain of Aβ (1-40), beta-amyloid protein of Alzheimer's disease (P05067 672-711 limits assumed): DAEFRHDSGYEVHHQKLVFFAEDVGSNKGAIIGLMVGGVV

Turning to “Engelbreth-Holm-Swarm (EHS) mouse tumor laminin, P02468 34-1607”, the Kd in test [1] was 2.7 nM. Also, in test [2], the Thioflavin T fluorescence (Aβ (1-40) amyloid fibril formation), 25 µM Aβ with 100 nM laminin, 1 week was determined as 27.1 fold lower; the Thioflavin T fluorescence (Aβ (1-40) amyloid fibril formation), 25 µM Aβ with 100 nM laminin, 1 hour came out at 2.9 fold lower; the Thioflavin T fluorescence (Aβ (1-40) amyloid fibril formation), 25 µM Aβ with 100 nM laminin, 1 day came out at 4.6 fold lower; the Thioflavin T fluorescence (Aβ (1-40) amyloid fibril formation), 25 µM Aβ with 100 nM laminin, 3 days is 30.6 fold lower. In addition, in test [2], the Thioflavin T fluorescence (Aβ fibrillogenesis), second study, 25 µM Aβ with 100 nM laminin, 1 week (fold decrease) worked out at 21; the Thioflavin T fluorescence (Aβ fibrillogenesis), second study, 25 µM Aβ with 100 nM laminin, 1 day (fold decrease) turned out to be 9; the Thioflavin T fluorescence (Aβ fibrillogenesis), second study, 25 µM Aβ with 100 nM laminin, 3 days (fold decrease) was 9; the dissolution of pre-formed Aβ amyloid fibrils (Thioflavin T fluorometry, 4 days), 16 nM laminin was determined as 25%. In addition, in test [2], the dissolution of pre-formed Aβ amyloid fibrils (Thioflavin T fluorometry, 4 days), 31 nM laminin turned out to be 28%; the dissolution of pre-formed Aβ amyloid fibrils (Thioflavin T fluorometry, 4 days), 63 nM laminin turned out to be 39%; the dissolution of pre-formed Aβ amyloid fibrils (Thioflavin T fluorometry, 4 days), 125 nM laminin came to 41%.
